± gives the uncertainty stated by the source.
B1: LIM and senescent cell antigen-like-containing domain protein 2, residues 13 to 71; numbered along this chain, Q7Z4I7 (parent)
chain: AVCQRCQARFSPAERIVNSNGELYHEHCFVCAQCFRPFPEGLFYEFEGRKYCEHDFQML

Variants of: B1
Test: abundance fitness (aPCA) (normalised: wild type 0, dead -1); higher = more abundant; growth selection in yeast, the domain comes from the species named
Details: Homo sapiens

Variant	abundance fitness
AVCQRCQARFSPAERIVNSNGELYHEHCFVPAQCFRPFPEGLFYEFEGRKYCEHDFQML [C31P]	-0.888 ± 0.1
AVCQRCQARFSPAERIVNSNGELYHEHCFVTAQCFRPFPEGLFYEFEGRKYCEHDFQML [C31T]	-0.975 ± 0.11
AVCQRCQARFSPAERIVNSNGELYHEHCFVMAQCFRPFPEGLFYEFEGRKYCEHDFQML [C31M]	-0.785 ± 0.099
AVCQRCQARFSPAERIVNSNGELYHEHCFVRAQCFRPFPEGLFYEFEGRKYCEHDFQML [C31R]	-0.767 ± 0.072
AVCQRCQARFSPAERIVNSNGELYHEHCFVSAQCFRPFPEGLFYEFEGRKYCEHDFQML [C31S]	-0.896 ± 0.083
AVCQRCQARFSPAERIVNSNGELYHEHCFVQAQCFRPFPEGLFYEFEGRKYCEHDFQML [C31Q]	-1.06 ± 0.14
AVCQRCQARFSPAERIVNSNGELYHEHCFVWAQCFRPFPEGLFYEFEGRKYCEHDFQML [C31W]	-0.893 ± 0.11
AVCQRCQARFSPAERIVNSNGELYHEHCFVVAQCFRPFPEGLFYEFEGRKYCEHDFQML [C31V]	-1.04 ± 0.099
AVCQRCQARFSPAERIVNSNGELYHEHCFVCAQYFRPFPEGLFYEFEGRKYCEHDFQML [C34Y]	-0.933 ± 0.28
AVCQRCQARFSPAERIVNSNGELYHEHCFVCAQQFRPFPEGLFYEFEGRKYCEHDFQML [C34Q]	-0.622 ± 0.13
AVCQRCQARFSPAERIVNSNGELYHEHCFVCAQGFRPFPEGLFYEFEGRKYCEHDFQML [C34G]	-0.544 ± 0.13
AVCQRCQARFSPAERIVNSNGELYHEHCFVCAQAFRPFPEGLFYEFEGRKYCEHDFQML [C34A]	-0.871 ± 0.18
AVCQRCQARFSPAERIVNSNGELYHEHCFVCAQPFRPFPEGLFYEFEGRKYCEHDFQML [C34P]	-0.508 ± 0.12
AVCQRCQARFSPAERIVNSNGELYHEHCFVCAQKFRPFPEGLFYEFEGRKYCEHDFQML [C34K]	-0.901 ± 0.18
AVCQRCQARFSPAERIVNSNGELYHEHCFVCAQNFRPFPEGLFYEFEGRKYCEHDFQML [C34N]	-0.865 ± 0.38
AVCQRCQARFSPAERIVNSNGELYHEHCFVCAQDFRPFPEGLFYEFEGRKYCEHDFQML [C34D]	-0.757 ± 0.22
AVCQRCQARFSPAERIVNSNGELYHEHCFVCAQMFRPFPEGLFYEFEGRKYCEHDFQML [C34M]	-0.474 ± 0.14
AVCQRCQARFSPAERIVNSNGELYHEHCFVCAQSFRPFPEGLFYEFEGRKYCEHDFQML [C34S]	-1 ± 0.15
AVCQRCQARFSPAERIVNSNGELYHEHCFVCAQLFRPFPEGLFYEFEGRKYCEHDFQML [C34L]	-0.52 ± 0.079
AVCQRCQARFSPAERIVNSNGELYHEHCFVCAQTFRPFPEGLFYEFEGRKYCEHDFQML [C34T]	-1.13 ± 0.26
AVCQRCQARFSPAERIVNSNGELYHEHCFVCAQEFRPFPEGLFYEFEGRKYCEHDFQML [C34E]	-0.788 ± 0.19
AVCQRCQARFSPAERIVNSNGELYHEHCFVCAQFFRPFPEGLFYEFEGRKYCEHDFQML [C34F]	-1.19 ± 0.29
AVCQRCQARFSPAERIVNSNGELYHEHCFVCAQRFRPFPEGLFYEFEGRKYCEHDFQML [C34R]	-0.668 ± 0.1

Variant	abundance fitness
AVCQRCQARFSPAERIVNSNGELYHEHCFVCAQWFRPFPEGLFYEFEGRKYCEHDFQML [C34W]	-1.1 ± 0.28
AVCQRCQARFSPAERIVNSNGELYHEHCFVCAQVFRPFPEGLFYEFEGRKYCEHDFQML [C34V]	-1.04 ± 0.17
AVCQRCQARFSPAERIVNSNGELYHEHCFVCAQCKRPFPEGLFYEFEGRKYCEHDFQML [F35K]	0.204 ± 0.086
AVCQRCQARFSPAERIVNSNGELYHEHCFVCAQCPRPFPEGLFYEFEGRKYCEHDFQML [F35P]	-0.739 ± 0.13
AVCQRCQARFSPAERIVNSNGELYHEHCFVCAQCLRPFPEGLFYEFEGRKYCEHDFQML [F35L]	0.031 ± 0.05
AVCQRCQARFSPAERIVNSNGELYHEHCFVCAQCDRPFPEGLFYEFEGRKYCEHDFQML [F35D]	0.153 ± 0.1
AVCQRCQARFSPAERIVNSNGELYHEHCFVCAQCTRPFPEGLFYEFEGRKYCEHDFQML [F35T]	0.072 ± 0.073
AVCQRCQARFSPAERIVNSNGELYHEHCFVCAQCWRPFPEGLFYEFEGRKYCEHDFQML [F35W]	-0.076 ± 0.1
AVCQRCQARFSPAERIVNSNGELYHEHCFVCAQCARPFPEGLFYEFEGRKYCEHDFQML [F35A]	0.077 ± 0.1
AVCQRCQARFSPAERIVNSNGELYHEHCFVCAQCGRPFPEGLFYEFEGRKYCEHDFQML [F35G]	0.195 ± 0.081
AVCQRCQARFSPAERIVNSNGELYHEHCFVCAQCHRPFPEGLFYEFEGRKYCEHDFQML [F35H]	0.224 ± 0.095
AVCQRCQARFSPAERIVNSNGELYHEHCFVCAQCSRPFPEGLFYEFEGRKYCEHDFQML [F35S]	0.219 ± 0.06
AVCQRCQARFSPAERIVNSNGELYHEHCFVCAQCQRPFPEGLFYEFEGRKYCEHDFQML [F35Q]	-0.014 ± 0.11
AVCQRCQARFSPAERIVNSNGELYHEHCFVCAQCVRPFPEGLFYEFEGRKYCEHDFQML [F35V]	0.112 ± 0.055
AVCQRCQARFSPAERIVNSNGELYHEHCFVCAQCERPFPEGLFYEFEGRKYCEHDFQML [F35E]	0.144 ± 0.086
AVCQRCQARFSPAERIVNSNGELYHEHCFVCAQCCRPFPEGLFYEFEGRKYCEHDFQML [F35C]	0.096 ± 0.073
AVCQRCQARFSPAERIVNSNGELYHEHCFVCAQCYRPFPEGLFYEFEGRKYCEHDFQML [F35Y]	0.008 ± 0.095
AVCQRCQARFSPAERIVNSNGELYHEHCFVCAQCMRPFPEGLFYEFEGRKYCEHDFQML [F35M]	-0.027 ± 0.08
AVCQRCQARFSPAERIVNSNGELYHEHCFVCAQCNRPFPEGLFYEFEGRKYCEHDFQML [F35N]	0.147 ± 0.091
AVCQRCQARFSPAERIVNSNGELYHEHCFVCAQCIRPFPEGLFYEFEGRKYCEHDFQML [F35I]	0.01 ± 0.083
AVCQRCQARFSPAERIVNSNGELYHEHCFVCGQCFRPFPEGLFYEFEGRKYCEHDFQML [A32G]	-0.073 ± 0.053
AVCQRCQARFSPAERIVNSNGELYHEHCFVCFQCFRPFPEGLFYEFEGRKYCEHDFQML [A32F]	-0.258 ± 0.08
